B1: Pistol ribozyme (parent)
chain: GGGUCGUUGUUCCAUAAUCGCGUGGAUAUGGCACGCAAGUUUCUACCGGGCACCGUAAAUGUCCGACUGGAGCCGUUCGGGCGGCUAUAAACAGACCUCAGGCCCGAAGCGUGGCGGCACCUGCCGCCGGUGGUAAAAAAGAUCGGAAGAGCACACGUCU

Variants of: B1
Assay: aptazyme ON/OFF ratio, guanine; higher = stronger switching; co-transcriptional cleavage with and without guanine

Variant | aptazyme ON/OFF ratio
U8C G9C U10C U11A C12U C13A | 1.02
U8G U10G U11C C12G C13A | 1.11
U7A U8C G9A U10C U11A C13G | 1.17
G9A U10C U11A C12U C13G | 1.29
U7C U8A U10A U11A C12U C13A | 1.23
U8A G9A U10C U11G C12A C13U | 1.17
G9U U10G C13G | 1.29
U8A G9U U10G U11A C13G | 1.03
U7A U8C G9A U10C C12G C13A | 1.12
U8C C12A C13A | 1.24
U8G U10G U11C C12A | 1.06
U7G U8G G9C U10A U11C C12G C13U | 1.06
U7G U8A G9A U10G U11G C13U | 1.26
U7A U8G G9U U10C U11A C12U C13G | 1.32
U7G U8G G9U U10C U11A C12A C13U | 1.33
U7G U8C G9A U10C U11G C12G C13U | 1.05
U7C U8C U10G U11C C12U C13G | 1.11
U7G U8C U10G U11A C12U C13G | 1.15
U7G U8A G9U U10A C13U | 1.02
U7G U8A G9C U10A U11G C12G | 1.03
U7A G9U C12U C13U | 1.21
U7G U8A U10G U11G C12U | 1.26
U7A U8G U10G U11G C12A C13G | 1.47
U7G U8G U10C U11A C13G | 1.38

Variant | aptazyme ON/OFF ratio
U7G U8A U10G U11G C12G C13A | 1.15
U7C U8G G9U U10A C12G C13U | 1.21
U7A U10A U11A C12G C13A | 1.07
U8C G9C U11G | 1.03
U7C U8G G9A U10C U11G C13U | 1.41
U7A G9C U10G U11A C13G | 1.06
U7G U8A G9U U10C U11G C12G C13U | 1.02
U7G U8G G9A U10C U11A | 2.49
U7G U8C G9A U10G U11A C12G C13A | 1.09
U7G U8C G9A U10G U11C C12U C13G | 1.16
U7C U8G G9C U11C C12U C13G | 1.07
U7C G9C U10A C13G | 1.05
U7A U8A U10G C12G C13G | 0.977
U7A U8C G9A U10A U11C C12A C13U | 1.25
U7C U8G G9U U10C C12A C13U | 1.37
U7C U8C U10C U11A C13G | 1.18
U7C G9U U10A U11G C13G | 1.02
U7G U8C G9U U10A U11G C12A C13G | 1.09
U7G U8C G9U U11G C12U C13A | 1.26
U7A G9C U10A U11C C12G C13U | 1.17
U7G U8C G9U C12U C13G | 1.16
U7A G9A U10A U11A C12G C13U | 1.05
G9C U10G U11A C13G | 1.09
U7C U8A G9A U10G U11A C12G C13A | 1.06

Variant | aptazyme ON/OFF ratio
U7A U11A C13G | 1.16
U8G G9C U10A C12U | 1.08
U7A U10C C12U | 3.22
U7C G9A U10G U11C C12G C13U | 1.11
U7G U8G G9U U10A U11C C12G C13G | 1.09
U7A U8G U10A U11G C13U | 1.29
U8G G9A U10G C12A C13G | 1.18
U7C U10C U11G C12A C13G | 1.19
U7C U8C G9U U10G U11A C13A | 1.18
U8C G9C U10G U11G C12G C13A | 1.13
U7C U8G G9U U10A U11A C12G C13U | 1.2
U7A U8C C12A | 1.42
U7C U8A G9A U10C U11C C12G | 1.09
U7A U10C U11C C12G C13A | 1.04
U7A U8C U10C C12G C13A | 1.34
U7G U8G G9A U11C C13G | 1.12
U7A U8G C12U C13A | 1.23
U8G G9A U10C C12G C13U | 1.33
U7G U8C G9U U11C C12U | 2.13
U8G U11C C12G C13A | 1.25
G9C U11A C12G C13G | 1.24
U7A U8C G9U U10C U11A C12G | 1.13
U7C G9C U10G U11A C12G | 1.23
U8A U10A U11G C12G C13A | 1.06

Variant | aptazyme ON/OFF ratio
U8A G9A U10G U11C C12G C13U | 1.18
U7G U8C G9C U10A U11C C13G | 1.26
U7G U8A G9A U10C U11C C12U C13U | 1.03
U7A U8A U10A U11C C12U C13U | 1.04
G9U U10G U11G C12G C13G | 1.31
U7A U8G U10A U11C C12A | 1.49
U8C G9A U10A U11A C12G C13U | 1.21
U7C U8A U10C U11G C13G | 1.1
U7C G9C U10C C13U | 1.08
U7A U8A G9A U10A C12U | 1.23
U7A U8G G9U U11G C12A C13A | 1.26
U7A U8A G9C U10G U11A C12U C13A | 1.11
G9C U10G U11A C12U C13G | 1.09
U7G U8A G9A U10G U11A C12A C13U | 1.07
U7C U8A G9A U10C U11C C12G C13A | 1.13
U7A U11G C12G C13U | 1.23
U8C U11G C13A | 1.05
U7G U8G G9U U10A C13A | 1.13
G9A U10A C12A C13U | 1.36
U7G G9A U10A C12U C13A | 1.14
U7C U8A G9U U10A U11C C12A C13G | 1.17
U8G U10A U11G C13U | 1.04
U7G U8C G9A U10G C12A C13G | 1.03
U7G U8A G9C U11C C13A | 1.06

Variant | aptazyme ON/OFF ratio
U7G U8C G9U U11G C12A C13A | 1.11
U7A U8A G9U U11A C12A C13U | 1.22
U8A G9A U10G U11A C12A C13G | 1.24
U7C U8A G9A U10C U11A C12G C13G | 1.17
U11C C12U C13A | 1.4
U7G U8A G9C U10A C12G C13G | 1.06
U7G G9C U10C U11G C12U C13A | 1.33
U7A U10C U11C C12G C13U | 1.06
U7A G9C U10A U11G C12G | 1.09
U7A U8A G9C C12U | 1.26
U7G U8G G9U U10G U11A C12A | 1.13
U7G U8C G9A U10C C12U C13G | 1.11
U8G G9A U10C C13A | 1.04
U7C U8G G9U U10G C12U C13G | 1.1
U8G G9A U10G U11A C13G | 1.21
U7G U8G G9U U10C U11C C12A C13A | 1.33
U7G U8A C12A | 1.27
U7C U8C U10G U11A C12U C13G | 1.1
U7C U8A G9C C12U | 1.05
U8G | 3.01
U7C U8C U10G U11C C12U C13A | 1.2
G9C U10C U11C C12G C13A | 1.08
U8C U10G C12A C13A | 1.11
U7A G9A C13G | 1.06

Variant | aptazyme ON/OFF ratio
U7G U10G U11A C12U C13G | 1.16
U7C G9A U10A U11A C13A | 1.08
U7G U10G U11G C13U | 1.2
U7A U8C G9U U11G C12G C13A | 1.22
U7G U8G G9U U10C U11G C13U | 1.28
U7G U8C G9U U10A U11C C12A C13A | 1.28
G9U U10G U11C C12U | 1.08
U7G U8A G9C U10G U11G C12U C13U | 1.15
U7G U8C G9U U10G U11G C12A | 1.31
U7A G9U U11A C13G | 1.08
U7A U8A U10A U11C C12U | 1.03
U7C U8C G9U U11A C13G | 1.07
U7G U8C G9A C12U C13U | 1.03
U7G U10C U11A C12G C13U | 1.06
U7C U8A G9A U10G C12U | 1.29
U7G U8A G9A U10A U11G C12G C13A | 1.1
U7G U8A G9U U10C U11A C13A | 1.1
U7C G9U U10C C13U | 1.5
U7A U8G C12A C13G | 1.25
U7C U8C U10A C12A C13G | 1.06
U7A U8C G9A U10A U11A | 1.19
U7G U8C G9C U10G C12G C13U | 1.1
U8A G9U U10A U11A C13A | 1.29
U7A G9C U10C U11G C12A C13A | 1.04

Variant | aptazyme ON/OFF ratio
U8C G9A U10A U11C C13A | 1.05
U7C U8A G9U U10G U11A C12U C13A | 1.12
U7G U11G C12G C13A | 1.09
U7G U8A G9U U10C U11G C12G | 1.1
U8G G9A U10G U11C C12U C13G | 1.2
U7C G9A U10A U11A C12U C13G | 1.25
U7G U8A G9U U11G C12A | 1.07
U7A U8A G9A C13U | 1.22
U8G G9A U10A C12G C13U | 1.35
U11G C12G C13A | 1.2
U7A G9C U10C C12G C13A | 1.03
U7A U8A G9U U11G C12G C13G | 1.22
U7C U8C G9U U10A U11C C12U C13A | 1.16
U7C U8A G9A U10G | 1.38
U7C U8C G9C U11C C12U C13G | 1.08
U7G U8C G9A U10A U11C C12U | 1.11
U7C U8C G9C U10C U11C C12U C13G | 1.08
U8C G9U U10C U11A C12A C13U | 1.11
U7C U8A U10C U11A C13U | 1.16
U7A U8A G9U U10A C13U | 1.24
U7A U8A G9C U10A U11A C12U | 1.19
U7G U8G G9U U10G U11C C13U | 1.11
U7C U8C U10C C12A | 1.39
